These are literature values, as cited in PMC2978668.

Where two headings read alike, the source gives them in different places.

Some targets named below: fibulin-2 (UniProt P98095); fibronectin (UniProt P02751); α5-laminin (UniProt O15230); α2-laminin (UniProt P24043); α4-laminin (UniProt Q16363); perlecan LG (UniProt P98160); α1-laminin (UniProt P25391); agrin (muscle) (UniProt O00468).
The target of series [1] is perlecan domain IV (UniProt P98160).
Series [2] shares this target. The source holds these as a separate data set.

Sequence of α-dystroglycan (Q14118 30-653): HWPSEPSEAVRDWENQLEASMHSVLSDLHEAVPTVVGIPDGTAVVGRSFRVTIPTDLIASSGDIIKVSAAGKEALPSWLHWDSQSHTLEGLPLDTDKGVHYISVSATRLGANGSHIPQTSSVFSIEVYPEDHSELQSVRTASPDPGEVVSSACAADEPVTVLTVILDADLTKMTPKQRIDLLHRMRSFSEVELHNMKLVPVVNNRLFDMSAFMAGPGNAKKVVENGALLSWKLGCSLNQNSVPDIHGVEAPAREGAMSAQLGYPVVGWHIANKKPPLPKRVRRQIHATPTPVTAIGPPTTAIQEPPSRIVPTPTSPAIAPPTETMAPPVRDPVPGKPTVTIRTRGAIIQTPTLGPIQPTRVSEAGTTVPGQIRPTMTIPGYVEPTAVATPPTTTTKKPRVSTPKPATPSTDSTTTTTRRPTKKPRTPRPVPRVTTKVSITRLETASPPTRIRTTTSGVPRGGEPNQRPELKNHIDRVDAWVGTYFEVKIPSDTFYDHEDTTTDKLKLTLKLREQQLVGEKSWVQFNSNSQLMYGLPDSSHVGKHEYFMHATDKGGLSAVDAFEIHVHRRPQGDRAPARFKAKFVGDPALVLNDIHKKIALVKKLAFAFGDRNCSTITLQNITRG
Sequence of perlecan domain IV (UniProt P98160) (P98160 1677-3686): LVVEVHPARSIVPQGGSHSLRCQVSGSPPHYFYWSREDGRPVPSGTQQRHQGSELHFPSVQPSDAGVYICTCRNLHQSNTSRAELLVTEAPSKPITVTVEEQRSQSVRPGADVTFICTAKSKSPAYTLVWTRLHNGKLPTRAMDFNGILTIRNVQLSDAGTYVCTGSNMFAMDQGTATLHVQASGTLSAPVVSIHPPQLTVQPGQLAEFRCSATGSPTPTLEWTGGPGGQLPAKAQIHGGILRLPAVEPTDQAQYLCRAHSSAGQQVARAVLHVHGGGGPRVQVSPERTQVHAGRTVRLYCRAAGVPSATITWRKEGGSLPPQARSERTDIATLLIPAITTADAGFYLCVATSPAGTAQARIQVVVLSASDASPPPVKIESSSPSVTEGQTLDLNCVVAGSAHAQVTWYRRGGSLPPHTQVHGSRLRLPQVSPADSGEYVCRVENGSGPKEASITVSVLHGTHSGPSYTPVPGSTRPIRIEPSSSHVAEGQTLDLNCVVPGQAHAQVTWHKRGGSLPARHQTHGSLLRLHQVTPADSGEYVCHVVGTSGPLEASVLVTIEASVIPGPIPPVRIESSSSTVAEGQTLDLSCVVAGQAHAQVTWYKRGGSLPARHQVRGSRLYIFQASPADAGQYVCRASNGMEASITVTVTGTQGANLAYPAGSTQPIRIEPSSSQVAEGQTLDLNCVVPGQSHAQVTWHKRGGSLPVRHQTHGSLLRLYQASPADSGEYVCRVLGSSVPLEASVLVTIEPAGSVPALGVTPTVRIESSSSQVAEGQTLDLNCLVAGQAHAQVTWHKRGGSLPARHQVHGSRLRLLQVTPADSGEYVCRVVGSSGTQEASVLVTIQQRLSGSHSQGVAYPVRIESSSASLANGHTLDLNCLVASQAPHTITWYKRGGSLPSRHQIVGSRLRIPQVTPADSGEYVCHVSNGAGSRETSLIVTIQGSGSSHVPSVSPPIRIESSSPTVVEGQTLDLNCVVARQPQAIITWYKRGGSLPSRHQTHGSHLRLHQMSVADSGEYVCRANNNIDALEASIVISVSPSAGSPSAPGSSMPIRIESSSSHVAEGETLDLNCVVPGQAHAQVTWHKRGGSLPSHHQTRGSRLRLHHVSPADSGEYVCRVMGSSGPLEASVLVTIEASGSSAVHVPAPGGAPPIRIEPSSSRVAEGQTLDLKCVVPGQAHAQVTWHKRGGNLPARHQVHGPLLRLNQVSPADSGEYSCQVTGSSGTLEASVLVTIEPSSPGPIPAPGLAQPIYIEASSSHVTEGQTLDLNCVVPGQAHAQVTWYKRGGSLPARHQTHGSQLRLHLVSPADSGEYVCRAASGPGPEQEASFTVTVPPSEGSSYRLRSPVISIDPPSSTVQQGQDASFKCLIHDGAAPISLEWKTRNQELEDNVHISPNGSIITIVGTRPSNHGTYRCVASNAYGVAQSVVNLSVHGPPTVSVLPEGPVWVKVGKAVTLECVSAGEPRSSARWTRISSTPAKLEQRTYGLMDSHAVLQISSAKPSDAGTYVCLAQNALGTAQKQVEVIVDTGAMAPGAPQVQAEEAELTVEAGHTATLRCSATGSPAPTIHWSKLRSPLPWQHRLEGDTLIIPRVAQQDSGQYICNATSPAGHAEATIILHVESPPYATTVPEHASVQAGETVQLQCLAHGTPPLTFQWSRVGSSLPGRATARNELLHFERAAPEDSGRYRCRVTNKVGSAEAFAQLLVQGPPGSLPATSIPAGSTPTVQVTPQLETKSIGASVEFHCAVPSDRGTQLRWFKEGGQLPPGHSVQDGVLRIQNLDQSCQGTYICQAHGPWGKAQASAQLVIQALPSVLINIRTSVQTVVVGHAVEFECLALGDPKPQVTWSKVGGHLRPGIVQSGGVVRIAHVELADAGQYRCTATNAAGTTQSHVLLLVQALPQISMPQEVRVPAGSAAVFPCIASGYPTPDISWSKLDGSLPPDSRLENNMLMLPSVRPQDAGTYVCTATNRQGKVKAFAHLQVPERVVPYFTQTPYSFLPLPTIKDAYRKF
Sequence of perlecan LG (P98160 3687-4391): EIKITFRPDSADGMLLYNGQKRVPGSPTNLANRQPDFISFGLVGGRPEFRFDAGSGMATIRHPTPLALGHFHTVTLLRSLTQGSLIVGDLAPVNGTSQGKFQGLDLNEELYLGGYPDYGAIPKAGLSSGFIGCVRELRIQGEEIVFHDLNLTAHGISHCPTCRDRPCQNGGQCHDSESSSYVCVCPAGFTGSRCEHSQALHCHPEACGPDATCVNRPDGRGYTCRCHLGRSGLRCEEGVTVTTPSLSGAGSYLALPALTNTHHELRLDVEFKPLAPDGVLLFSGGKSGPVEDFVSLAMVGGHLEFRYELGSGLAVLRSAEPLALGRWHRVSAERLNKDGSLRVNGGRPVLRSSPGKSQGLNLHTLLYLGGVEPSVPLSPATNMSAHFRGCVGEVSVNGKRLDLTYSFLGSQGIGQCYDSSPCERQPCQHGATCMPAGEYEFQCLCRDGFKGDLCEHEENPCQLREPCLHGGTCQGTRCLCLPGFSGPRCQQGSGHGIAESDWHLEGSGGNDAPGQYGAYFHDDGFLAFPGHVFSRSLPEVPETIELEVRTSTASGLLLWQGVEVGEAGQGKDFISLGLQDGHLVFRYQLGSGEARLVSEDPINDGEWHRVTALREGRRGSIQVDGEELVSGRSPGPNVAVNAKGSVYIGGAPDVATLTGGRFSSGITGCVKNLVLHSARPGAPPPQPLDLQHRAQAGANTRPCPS
Sequence of fibulin-2 (P98095 28-1184): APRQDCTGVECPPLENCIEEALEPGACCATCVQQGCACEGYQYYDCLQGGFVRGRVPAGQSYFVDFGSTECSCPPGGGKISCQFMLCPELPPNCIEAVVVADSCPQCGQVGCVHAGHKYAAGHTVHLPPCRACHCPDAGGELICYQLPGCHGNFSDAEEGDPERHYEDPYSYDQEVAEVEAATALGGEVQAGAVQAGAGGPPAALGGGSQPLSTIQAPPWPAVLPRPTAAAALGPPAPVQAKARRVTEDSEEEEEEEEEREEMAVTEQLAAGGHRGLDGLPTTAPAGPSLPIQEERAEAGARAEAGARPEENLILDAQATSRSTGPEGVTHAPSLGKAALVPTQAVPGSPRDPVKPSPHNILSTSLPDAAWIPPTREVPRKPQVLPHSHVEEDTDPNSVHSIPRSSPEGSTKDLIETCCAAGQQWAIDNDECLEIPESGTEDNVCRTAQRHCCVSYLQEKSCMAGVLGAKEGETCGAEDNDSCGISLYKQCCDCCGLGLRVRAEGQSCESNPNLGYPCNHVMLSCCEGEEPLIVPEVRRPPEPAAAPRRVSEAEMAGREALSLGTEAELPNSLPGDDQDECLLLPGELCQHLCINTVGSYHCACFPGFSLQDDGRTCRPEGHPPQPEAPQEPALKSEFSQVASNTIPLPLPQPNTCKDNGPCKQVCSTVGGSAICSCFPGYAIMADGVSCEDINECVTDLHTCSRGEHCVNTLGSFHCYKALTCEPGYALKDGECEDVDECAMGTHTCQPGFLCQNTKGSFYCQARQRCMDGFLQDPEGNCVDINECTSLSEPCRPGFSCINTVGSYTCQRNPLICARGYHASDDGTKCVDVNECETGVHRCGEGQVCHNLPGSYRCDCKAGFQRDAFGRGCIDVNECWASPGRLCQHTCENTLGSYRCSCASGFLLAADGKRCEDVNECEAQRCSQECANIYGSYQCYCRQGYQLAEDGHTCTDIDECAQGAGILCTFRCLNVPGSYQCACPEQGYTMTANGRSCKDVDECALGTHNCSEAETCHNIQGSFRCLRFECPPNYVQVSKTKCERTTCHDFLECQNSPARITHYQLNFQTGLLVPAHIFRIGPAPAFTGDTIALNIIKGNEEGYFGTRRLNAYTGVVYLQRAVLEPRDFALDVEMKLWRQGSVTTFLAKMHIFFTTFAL
Sequence of perlecan domain IV (from UniProt P98160) (P98160 1677-3686): as the sequence (P98160 1677-3686) above
Sequence of nidogen-1 G2 (P14543 430-667): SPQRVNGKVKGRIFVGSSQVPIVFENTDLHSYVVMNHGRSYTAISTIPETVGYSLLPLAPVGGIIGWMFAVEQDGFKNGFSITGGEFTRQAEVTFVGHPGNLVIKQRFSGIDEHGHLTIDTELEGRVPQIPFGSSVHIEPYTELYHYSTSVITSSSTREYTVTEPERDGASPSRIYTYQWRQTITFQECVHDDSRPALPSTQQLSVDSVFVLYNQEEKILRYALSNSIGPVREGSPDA

As to nidogen (from UniProt P14543), the Kd in the series with fibulin-2 is less than 0.5 nM.
As to nidogen-1 G2 (from UniProt P14543), the Kd with perlecan domain IV [1] is 10 nM.
For nidogen-2 (from UniProt Q14112), in the series with perlecan domain IV [2], the Kd was 10 nM.
As for “perlecan domain IV (from UniProt P98160)”, the Kd with fibronectin is 10 nM.
Regarding α-dystroglycan (from UniProt Q14118), the dissociation constant Kd with α5-laminin is 150 nM; in the series with α2-laminin, 43 nM; with α4-laminin, greater than 1000 nM; with perlecan LG it was 16 nM; with α1-laminin, 20 nM; in the series with agrin (muscle), 2 nM.
